Results from ChEMBL document CHEMBL1140936, “Topological polar surface area defines substrate transport by multidrug resistance associated protein 1 (MRP1/ABCC1)” (J Med Chem, 2009).

How the values were obtained:
[1] = substrate: N[C@@H](CCC(=O)N[C@@H](CSSC[C@H](NC(=O)CC[C@H](N)C(=O)O)C(=O)NCC(=O)O)C(=O)NCC(=O)O)C(=O)O; experiment: Activity of MRP1
not read = substrate: N[C@@H](CCC(=O)N[C@@H](CS)C(=O)NCC(=O)O)C(=O)O; experiment: not read

B1: Multidrug resistance-associated protein 1 (Homo sapiens) (protein)
chain: MALRGFCSADGSDPLWDWNVTWNTSNPDFTKCFQNTVLVWVPCFYLWACFPFYFLYLSRHDRGYIQMTPLNKTKTALGFLLWIVCWADLFYSFWERSRGIFLAPVFLVSPTLLGITMLLATFLIQLERRKGVQSSGIMLTFWLVALVCALAILRSKIMTALKEDAQVDLFRDITFYVYFSLLLIQLVLSCFSDRSPLFSETIHDPNPCPESSASFLSRITFWWITGLIVRGYRQPLEGSDLWSLNKEDTSEQVVPVLVKNWKKECAKTRKQPVKVVYSSKDPAQPKESSKVDANEEVEALIVKSPQKEWNPSLFKVLYKTFGPYFLMSFFFKAIHDLMMFSGPQILKLLIKFVNDTKAPDWQGYFYTVLLFVTACLQTLVLHQYFHICFVSGMRIKTAVIGAVYRKALVITNSARKSSTVGEIVNLMSVDAQRFMDLATYINMIWSAPLQVILALYLLWLNLGPSVLAGVAVMVLMVPVNAVMAMKTKTYQVAHMKSKDNRIKLMNEILNGIKVLKLYAWELAFKDKVLAIRQEELKVLKKSAYLSAVGTFTWVCTPFLVALCTFAVYVTIDENNILDAQTAFVSLALFNILRFPLNILPMVISSIVQASVSLKRLRIFLSHEELEPDSIERRPVKDGGGTNSITVRNATFTWARSDPPTLNGITFSIPEGALVAVVGQVGCGKSSLLSALLAEMDKVEGHVAIKGSVAYVPQQAWIQNDSLRENILFGCQLEEPYYRSVIQACALLPDLEILPSGDRTEIGEKGVNLSGGQKQRVSLARAVYSNADIYLFDDPLSAVDAHVGKHIFENVIGPKGMLKNKTRILVTHSMSYLPQVDVIIVMSGGKISEMGSYQELLARDGAFAEFLRTYASTEQEQDAEENGVTGVSGPGKEAKQMENGMLVTDSAGKQLQRQLSSSSSYSGDISRHHNSTAELQKAEAKKEETWKLMEADKAQTGQVKLSVYWDYMKAIGLFISFLSIFLFMCNHVSALASNYWLSLWTDDPIVNGTQEHTKVRLSVYGALGISQGIAVFGYSMAVSIGGILASRCLHVDLLHSILRSPMSFFERTPSGNLVNRFSKELDTVDSMIPEVIKMFMGSLFNVIGACIVILLATPIAAIIIPPLGLIYFFVQRFYVASSRQLKRLESVSRSPVYSHFNETLLGVSVIRAFEEQERFIHQSDLKVDENQKAYYPSIVANRWLAVRLECVGNCIVLFAALFAVISRHSLSAGLVGLSVSYSLQVTTYLNWLVRMSSEMETNIVAVERLKEYSETEKEAPWQIQETAPPSSWPQVGRVEFRNYCLRYREDLDFVLRHINVTINGGEKVGIVGRTGAGKSSLTLGLFRINESAEGEIIIDGINIAKIGLHDLRFKITIIPQDPVLFSGSLRMNLDPFSQYSDEEVWTSLELAHLKDFVSALPDKLDHECAEGGENLSVGQRQLVCLARALLRKTKILVLDEATAAVDLETDDLIQSTIRTQFEDCTVLTIAHRLNTIMDYTRVIVLDKGEIQEYGAPSDLLQQRGLFYSMAKDAGLV
In the case of B1, the Km [1] is reported as 93 µM and the Km (not read) is reported as 5000 µM.
